This note sets out measurements from patent US20110262366A1.

For orientation: IC50 means the concentration at which inhibition is half-maximal. Lower therefore signals greater potency.

The target of test [1] is endothelial cell receptor on HAEC (human aortic endothelial cells). Briefly: microbubbles with 5% DPPE-GTKPPR on HAEC, static, no competitor (same control as in the 16th table).
For test [2] the target is unchanged. Description: microbubbles with 5% BRU-114 on HAEC, static, no competitor.
The target is the same in test [3]. Briefly: microbubbles with 5% DPPE-GTKPPR on HAEC, static, no competition.
Test [4] shares this target. Description: microbubbles with 5% DPPE-GTKPPR on HAEC, static, after washing.
For test [5] the target is unchanged. Description: microbubbles with 5% DPPE-GTKPPR on HAEC, static; cells treated with 10 ng/mL TNFα for 4 h.
For test [6] the target is unchanged. Description: microbubbles with 2% BRU-114 on HAEC, static, no competitor (control set to 100).
For test [7] the target is unchanged. Briefly: microbubbles with 1% BRU-114 on HAEC, static, no competitor.
Test [8] has the same target. Description: microbubbles with 5% DPPE-GTKPPR on HAEC, static; cells treated with 5 ng/mL TNFα for 4 h.
The target is the same in test [9]. Briefly: microbubbles with 10% BRU-114 on HAEC, static, no competitor.
The target is the same in test [10]. Description: microbubbles on HAEC, static, manual counting, 5% against 1% DPPE-GTKPPR.
Test [11] has the same target. Description: microbubbles with 5% DPPE-GTKPPR on HAEC, static, no competitor.
Test [12] shares this target. Description: microbubbles with 1% BRU-114 on HAEC, static, no competitor, average of duplicates.
Test [13] has the same target. Description: microbubbles with 5% DPPE-GTKPPR on HAEC, static, no competitor (control).
Test [14] has the same target. Briefly: microbubbles with 2% BRU-114 on HAEC, static, no competitor, average of duplicates.
For test [15] the target is unchanged. Description: microbubbles with 5% DPPE-GTKPPR on HAEC, static; cells treated with 0 ng/mL TNFα for 4 h.
Test [16] has the same target. Briefly: microbubbles with 5% DPPE-GTKPPR on HAEC, static.
For test [17] the target is unchanged. Briefly: microbubbles with 1% DPPE-GTKPPR on HAEC, static, no competition.
Test [18] deals with KB cells (human epidermoid carcinoma cell line). Briefly: microbubbles with 5% DPPE-GTKPPR on KB cells, static.
In test [19] the target is endothelial cell receptor on HAEC (human aortic endothelial cells). Description: microbubbles with 5% DPPE-GTKPPR on HAEC, static; cells treated with 1 ng/mL TNFα for 4 h.
Test [20] deals with endothelial cell receptor on RAEC (rabbit aortic endothelial cells). Description: microbubbles with 5% DPPE-GTKPPR on RAEC, static, no competitor.
Test [21] concerns the target endothelial cell receptor on HAEC (human aortic endothelial cells). Description: competition, 200 µM BRU-306 against 2% BRU-114 microbubbles (competitor) on HAEC, static.
For test [22] the target is unchanged. Briefly: competition, 100 µM BRU-306 against 2% BRU-114 microbubbles (competitor) on HAEC, static.
For test [23] the target is unchanged. Description: competition, 50 µM BRU-306 against 2% BRU-114 microbubbles (competitor) on HAEC, static.
For test [24] the target is unchanged. Description: competition, 50 µM tuftsin against 1% BRU-114 microbubbles (competitor) on HAEC, static.
Test [25] concerns the target NP-1/Fc (Neuropilin-1/Fc, R&D Systems). Description: competition with 250 pM ^125I-VEGF165 on NP-1/Fc-coated plates, 4° C., 2 h.
Test [26] deals with endothelial cell receptor on HAEC (human aortic endothelial cells). Description: competition, 5 µM tuftsin against 1% BRU-114 microbubbles (competitor) on HAEC, static.
Test [27] has the same target. Briefly: competition, 25 µM tuftsin against 1% BRU-114 microbubbles (competitor) on HAEC, static.
The target is the same in test [28]. Briefly: competition, 100 µM tuftsin against 1% BRU-114 microbubbles (competitor) on HAEC, static.
The target is the same in test [29]. Description: competition, 10 µM tuftsin against 1% BRU-114 microbubbles (competitor) on HAEC, static.
Test [30] shares this target. Description: conjugated fluorescent beads on confluent HAEC, static 30 min, image analysis (Example 2, experiment 1).
The target is the same in test [31]. Description: TKPPR-beads perfused over HAEC in a parallel plate flow cell, 1.53 dynes/cm^2.
The next test concerns the target VEGF receptors on HUVECs. Description: competition with ^125I-VEGF on HUVECs.
Test [32] concerns the target endothelial cell receptor on HAEC (human aortic endothelial cells). Description: competition, 200 µM BRU-305 against 2% BRU-114 microbubbles (competitor) on HAEC, static.
For test [33] the target is unchanged. Description: competition, 50 µM BRU-305 against 2% BRU-114 microbubbles (competitor) on HAEC, static.
Test [34] has the same target. Briefly: competition, 100 µM BRU-305 against 2% BRU-114 microbubbles (competitor) on HAEC, static.

Starred links: 1 amine or outer side, 2 acyl side, 3 side chain; linkers in the order of their positions; H or OH if unused. Positions of bridges follow the written chain, without caps; N, C: chain ends. Primed or numbered codes have the meaning given here. No end group written: not given here. DPPE′ = dipalmitoylphosphatidylethanolamine; Glutaryl = O=C(CCCC(=O)[*:2])[*:1]

NP-1/Fc (Neuropilin-1/Fc, R&D Systems), sequence (Q9QWJ9 22-855): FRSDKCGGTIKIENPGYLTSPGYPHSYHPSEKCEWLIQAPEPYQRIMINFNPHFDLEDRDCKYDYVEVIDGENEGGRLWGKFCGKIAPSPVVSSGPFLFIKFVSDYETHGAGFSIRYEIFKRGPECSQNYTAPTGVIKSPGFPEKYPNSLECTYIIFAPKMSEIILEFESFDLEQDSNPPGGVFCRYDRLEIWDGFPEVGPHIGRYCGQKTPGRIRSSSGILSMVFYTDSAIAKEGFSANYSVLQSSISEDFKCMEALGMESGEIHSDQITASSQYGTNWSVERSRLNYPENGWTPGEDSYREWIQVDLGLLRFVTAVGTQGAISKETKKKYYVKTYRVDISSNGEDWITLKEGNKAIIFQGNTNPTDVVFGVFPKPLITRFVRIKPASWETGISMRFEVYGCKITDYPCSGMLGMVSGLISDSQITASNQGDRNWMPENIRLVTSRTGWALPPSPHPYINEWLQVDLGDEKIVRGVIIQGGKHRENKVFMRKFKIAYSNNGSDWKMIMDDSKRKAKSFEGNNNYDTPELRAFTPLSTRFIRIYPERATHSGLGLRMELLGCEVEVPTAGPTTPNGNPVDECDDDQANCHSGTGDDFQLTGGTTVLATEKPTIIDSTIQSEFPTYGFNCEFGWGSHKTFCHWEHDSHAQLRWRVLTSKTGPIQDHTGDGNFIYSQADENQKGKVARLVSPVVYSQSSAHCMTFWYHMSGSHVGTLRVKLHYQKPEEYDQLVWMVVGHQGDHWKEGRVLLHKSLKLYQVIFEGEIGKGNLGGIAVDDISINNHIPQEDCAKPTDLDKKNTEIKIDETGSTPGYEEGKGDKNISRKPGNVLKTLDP

As to {DPPE′-Glutaryl}-GTKPPR-OH (also: built into phospholipid shell of gas-filled microbubbles) [DPPE-Glu-GTKPPR (BRU-114) in gas-filled microbubbles], the Bubbles Bound in test [1] worked out at 1250 bubbles; in [2], 2780 bubbles; in [3], 726 bubbles; in test [4], 7050 bubbles; in test [5], 1020 bubbles; in test [7], 1640 bubbles. For the same molecule, the Bubbles Bound came to 1360 bubbles in test [8]; 1860 bubbles in [9]; 737 bubbles in test [12]; 1250 bubbles in test [13]; 953 bubbles in test [14]; 950 bubbles in test [15]. For the same molecule, the Bubbles Bound was determined as 555 bubbles in [17] and 1520 bubbles in [19]. For the same molecule, the Bubbles Bound % (of control binding) in test [6] is 100 % of control. The molecule also displayed a % more bubbles bound than with the 1% composition in [10] of 31%. This molecule also displayed an HAEC bubbles bound in [11] of 1420 bubbles. This molecule also came in with an HAEC bubble binding in [16] of 1120 bubbles. This molecule displayed a KB cell bubble binding in test [18] of 56 bubbles. The molecule also returned an RAEC bubbles bound in [20] of 751 bubbles.
Take CTKPPRC (disulfide 1-7 (inferred)) [Cyclic disulfide CTKPPRC (BRU-306)]: the figures for the Bubbles Bound % (of control binding) in [21], in [22] and in [23] were 99 % of control, 71 % of control and 97 % of control, respectively.
In the case of TKPR [Tuftsin (TKPR)], the Bubbles Bound in presence of competitor in test [24] was found to be 904 bubbles; in test [26], 1150 bubbles; in test [27] it was 1170 bubbles; in test [28], 556 bubbles; in [29] it was 976 bubbles. This molecule came in with a 50% inhibitory concentration (IC50) in test [25] of 280 µM.

B1: TKPPR-conjugated fluorescent beads (peptide)
peptide: TKPPR
modifications: also: coupled by EDAC to carboxylate-modified fluorescent FluoSpheres beads, many copies per bead
Regarding B1, the Integrated density of bound beads (arbitrary units) in test [30] amounted to 230. Also, in test [31], the beads bound at 1.53 dynes/cm^2 came to 86 beads.

B2: TKPPR tetramer BRU-326 (OG-(TKPPR)4) (peptide)
peptide: TKPPR-OH
modifications: not fully specified (N-terminus); printed as OG-(TKPPR)4; also: tetramer: four TKPPR arms on branched scaffold carrying one Oregon Green
Take B2: in the test with VEGF receptors on HUVECs, the half-inhibitory concentration (IC50) was 10 µM.
For the molecule CTKPPRC [Linear CTKPPRC (BRU-305)], the Bubbles Bound % (of control binding) is 88 % of control in test [32], 97 % of control in test [33] and 78 % of control in [34].
Turning to GRGDSP (also: coupled by EDAC to carboxylate-modified fluorescent FluoSpheres beads) [GRGDSP-conjugated fluorescent beads], in test [30], the Integrated density of bound beads (arbitrary units) worked out at 28.6.
